Earlier results in paper PMC5431918 (Scientific Reports, 2017).

Excerpt: As PAC1, VPAC1 and VPAC2 mRNAs were detected in a rat insulinoma cell line with PAC1 binding prevailing over that of VPAC1 and VPAC2[23], the PAC1 receptor seemed to be a promising alternative for targeting insulinomas. The natural mammalian ligands at the PAC1 receptor are PACAP38 and the truncated form PACAP27. They bind to PAC1, ...

| Substance | Stability in plasma |
| --- | --- |
| PACAP27: truncated form of PACAP38; non-selective PAC1/VPAC1/VPAC2 ligand | unstable in plasma |
| PACAP38: natural mammalian ligand at the PAC1 receptor; non-selective PAC1/VPAC1/VPAC2 ligand | unstable in plasma |
